T1: IL10Rα-Fc fusion protein (human, UniProt Q13651 22-235)
T1 construct: Bought from R&D Systems; also called human IL10Rα
T1 sequence (looked up): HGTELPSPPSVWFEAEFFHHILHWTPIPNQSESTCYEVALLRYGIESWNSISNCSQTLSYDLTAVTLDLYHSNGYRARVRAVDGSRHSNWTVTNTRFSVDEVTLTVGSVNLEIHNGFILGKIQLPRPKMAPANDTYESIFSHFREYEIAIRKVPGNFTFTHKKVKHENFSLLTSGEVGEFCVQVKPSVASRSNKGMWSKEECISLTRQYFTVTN


Experiments:
IL10Rα-Fc fusion protein = molecular target: T1, IL10Rα-Fc fusion protein; assay: ELISA, IL10Rα-Fc immobilised (1 µg/mL)
Description: (§1) The wells were washed with wash solution (0.05% Tween20 in imidazole-buffered saline) and blocked with 1% BSA. […] After incubation at 37° C. for 1 hr, the wells were washed with wash solution. Peroxidase-conjugated Goat anti-human kappa Light chain antibody (Sigma) was applied to each well at 37° C. for 1 h incubation. […] After washing, the wells were developed with TMB substrate for 5-10 min at RT and then stopped with 1 N HCl. Thereafter, absorbance was measured at 450 nm and 650 nm. EC50 and IC50 values were calculated using GraphPad Prism7.

[1] = molecular target: T2, recombinant human PD-L1-mFc fusion protein (human, UniProt Q9NZQ7 19-238); assay: ELISA, human PD-L1-mFc immobilised (1 µg/mL), anti-human kappa-HRP detection
T2 construct: also called hPD-L1; huPD-L1
Description: as §1

[2] = molecular target: T2, recombinant human PD-L1-mFc fusion …; assay: competition ELISA, PD-L1 immobilised, competitor biotin-PD-1-Fc (30 µg/mL)
Description: To test the competition activity, serial dilutions of anti-PD-L1 or anti-PD-L1/IL10 fusion proteins were added.
A recombinant human PD-L1-mFc fusion protein (1 μg/mL), recombinant cynomolgus PD-L1 (1 μg/mL; Sino Biological), or an IL10Rα-Fc fusion protein (1 μg/mL, R&D Systems) were immobilized on 96 well microtiter plate at a concentration of 1 μg/ml in Coating Solution (SeraCare) overnight at 4° C. The wells were washed with wash solution (0.05% Tween20 in imidazole-buffered saline) and blocked with 1% BSA. Serial dilutions of anti-PD-L1 or anti-PD-L1/IL10 fusion proteins were added to wells. After incubation at 37° C. for 1 hr, the wells were washed with wash solution. Peroxidase-conjugated Goat anti-human kappa Light chain antibody (Sigma) was applied to each well at 37° C. for 1 h incubation. […] After washing, the wells were developed with TMB substrate for 5-10 min at RT and then stopped with 1 N HCl. Thereafter, absorbance was measured at 450 nm and 650 nm. EC50 and IC50 values were calculated using GraphPad Prism7.

[3] = molecular target: T3, recombinant human PD-L1-His (human, UniProt Q9NZQ7 19-238); assay: BLI (Octet RED96), antibody captured on AHC biosensor, PD-L1-His in solution, 1:1 model;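 also: rates obtained by 1:1 Langmuir fitting of the binding response, using a 2.5 min association phase then a 5 min dissociation phase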
T3 construct: Analyte of the BLI assay; also called hPD-L1
Description: Rate constants were calculated by curve fitting analyses (1:1 Langmuir model) of binding response with a 2.5-minute association and 5-minute dissociation interaction time.

[4] = molecular target: PD-L1 on PD-L1-presenting U2OS bioassay cells (UniProt Q9NZQ7 19-290); assay: cell-based or functional assay
[5] = molecular target: T4, recombinant cynomolgus PD-L1 (cynomolgus monkey, UniProt Q9NZQ7 19-238 (human entry)); assay: ELISA, cynomolgus PD-L1 immobilised (1 µg/mL)
T4 construct: also called cynoPD-L1; Cynomolgus PD-L1.ECD
T4 sequence (Q9NZQ7 other isoform, or with tags, fused parts or gaps limits assumed): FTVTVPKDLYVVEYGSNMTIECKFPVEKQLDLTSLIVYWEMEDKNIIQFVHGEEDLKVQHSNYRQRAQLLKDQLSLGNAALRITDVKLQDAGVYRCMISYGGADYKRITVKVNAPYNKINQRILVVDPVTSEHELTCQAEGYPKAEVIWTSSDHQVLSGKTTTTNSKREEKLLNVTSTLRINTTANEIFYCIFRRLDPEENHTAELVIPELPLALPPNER
Description: as §1

Sequence of PD-L1 on PD-L1-presenting U2OS bioassay cells (Q9NZQ7 19-290): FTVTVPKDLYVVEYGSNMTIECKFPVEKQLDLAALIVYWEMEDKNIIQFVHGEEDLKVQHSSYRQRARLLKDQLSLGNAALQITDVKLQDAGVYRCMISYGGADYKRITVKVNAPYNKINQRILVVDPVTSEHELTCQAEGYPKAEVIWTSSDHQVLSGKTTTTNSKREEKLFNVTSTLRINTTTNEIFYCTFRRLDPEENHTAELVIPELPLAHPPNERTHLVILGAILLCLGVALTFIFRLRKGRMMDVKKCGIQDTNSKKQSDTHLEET
T3 sequence (Q9NZQ7 19-238): as the sequence (Q9NZQ7 other isoform, or with tags, fused parts or gaps limits assumed) above, with T33A, S34A, N62S, Q68R, R82Q, L173F, A185T, I192T, L215H counted along it
T2 sequence (Q9NZQ7 19-238): as the sequence (Q9NZQ7 other isoform, or with tags, fused parts or gaps limits assumed) above, with T33A, S34A, N62S, Q68R, R82Q, L173F, A185T, I192T, L215H counted along it

EC50 (IL10Rα-Fc fusion protein) | EC50 [1] | IC50 [2] | Kd [3] | koff [3] | kon [3] | IC50, blocking PD-1/PD-L1 signaling (PathHunter PD-1 Signaling Bioassay, U2OS PD-L1 cells + Jurkat PD-1 signaling cells) [4] | EC50 [5] | Binder
 |  |  | 1.99 nM | 0.000603 s⁻¹ | 303000 M⁻¹ s⁻¹ | 6.07 nM |  | PHS102.YT7A (antibody, human IgG1, kappa, N297A, full-length human IgG1-N297A / kappa) heavy: not shown light: DIQMTQSPSSLSASVGDRVTITCRAGQDVYKAVAWYQQKPGKAPKLLIYWSTNLYSGVPSRFSGSGSGTDFTLTISSLQPEDFATYYCQQYGIAPPTFGQGTKVEIKRTVAAPSVFIFPPSDEQLKSGTASVVCLLNNFYPREAKVQWKVDNALQSGNSQESVTEQDSKDSTYSLSSTLTLSKADYEKHKVYACEVTHQGLSSPVTKSFNRGEC
94.3 nM | 0.0798 nM | 0.061 nM |  |  |  | 4.22 nM |  | PHS102/IL10 (antibody, human IgG1, kappa, N297A) heavy: not shown light: DIQMTQSPSSLSASVGDRVTITCRAGQDVYKAVAWYQQKPGKAPKLLIYWSTNLYSGVPSRFSGSGSGTDFTLTISSLQPEDFATYYCQQGSTWPLTFGQGTKVEIKRTVAAPSVFIFPPSDEQLKSGTASVVCLLNNFYPREAKVQWKVDNALQSGNSQESVTEQDSKDSTYSLSSTLTLSKADYEKHKVYACEVTHQGLSSPVTKSFNRGEC
 |  |  |  |  |  | 2.47 nM |  | PHS102.YT7H/IL10 (antibody, human IgG1, kappa, N297A) heavy: not shown light: DIQMTQSPSSLSASVGDRVTITCRAGQDVYKAVAWYQQKPGKAPKLLIYWSTNLYSGVPSRFSGSGSGTDFTLTISSLQPEDFATYYCQQHGNAPITFGQGTKVEIKRTVAAPSVFIFPPSDEQLKSGTASVVCLLNNFYPREAKVQWKVDNALQSGNSQESVTEQDSKDSTYSLSSTLTLSKADYEKHKVYACEVTHQGLSSPVTKSFNRGEC
 |  |  |  |  |  | 4.87 nM |  | PHS102.YT7A/IL10 (antibody, human IgG1, kappa, N297A) heavy: not shown light: DIQMTQSPSSLSASVGDRVTITCRAGQDVYKAVAWYQQKPGKAPKLLIYWSTNLYSGVPSRFSGSGSGTDFTLTISSLQPEDFATYYCQQYGIAPPTFGQGTKVEIKRTVAAPSVFIFPPSDEQLKSGTASVVCLLNNFYPREAKVQWKVDNALQSGNSQESVTEQDSKDSTYSLSSTLTLSKADYEKHKVYACEVTHQGLSSPVTKSFNRGEC
 |  |  | 1.92 nM | 0.00067 s⁻¹ | 350000 M⁻¹ s⁻¹ |  |  | PHS102.YT10H (antibody, human IgG1, kappa, N297A, V domains shown, full-length human IgG1-N297A / kappa) VH: EVQLVESGGGLVQPGGSLRLSCAASGFTISDAYIHWVRQAPGKGLEWVARIEPLSGRTDYADSVKGRFTISADTSKNTAYLQMNSLRAEDTAVYYCARAFSWFMDYWGQGTLVTVSS VL: DIQMTQSPSSLSASVGDRVTITCRAGQDVYKAVAWYQQKPGKAPKLLIYWSTNLYSGVPSRFSGSGSGTDFTLMISSLQPEDFATYYCQQHDKTPTTFGQGTKVEIKR
 |  |  | 2.16 nM | 0.000713 s⁻¹ | 330000 M⁻¹ s⁻¹ |  |  | PHS102.YT6D (antibody, human IgG1, kappa, N297A, V domains shown) VH: EVQLVESGGGLVQPGGSLRLSCAASGFTISDGYIHWVRQAPGKGLEWVARIDPLTGRTMYADSVKGRFTISADTSKNTAYLQMNSLRAEDTAVYYCARAFSWWPDYWGQGTLVTVSS VL: DIQMTQSPSSLSASVGDRVTITCRAGQDVYKAVAWYQQKPGKAPKLLIYWSTNLYSGVPSRFSGSGSGTDFTLTISSLQPEDFATYYCQQIMSPPPTFGQGTKVEIKR
 |  |  | 6.16 nM | 0.00125 s⁻¹ | 203000 M⁻¹ s⁻¹ | 3.48 nM |  | PHS102.YT7H (antibody, human IgG1, kappa, N297A, full-length human IgG1-N297A / kappa) heavy: not shown light: DIQMTQSPSSLSASVGDRVTITCRAGQDVYKAVAWYQQKPGKAPKLLIYWSTNLYSGVPSRFSGSGSGTDFTLTISSLQPEDFATYYCQQHGNAPITFGQGTKVEIKRTVAAPSVFIFPPSDEQLKSGTASVVCLLNNFYPREAKVQWKVDNALQSGNSQESVTEQDSKDSTYSLSSTLTLSKADYEKHKVYACEVTHQGLSSPVTKSFNRGEC
66.3 nM | 0.164 nM | 1.2 nM |  |  |  |  |  | PHS219/IL10 (antibody, human IgG1, kappa, N297A) heavy: not shown light: DIQMTQSPSSLSASVGDRVTITCRASQDVSSSVAWYQQKPGKAQKLLISWATSLYSGVPSRFSGSGSGTDFTLTISSLQPEDFATYYCQQYNNFPYTFGQGTKVEIKRTVAAPSVFIFPPSDEQLKSGTASVVCLLNNFYPREAKVQWKVDNALQSGNSQESVTEQDSKDSTYSLSSTLTLSKADYEKHKVYACEVTHQGLSSPVTKSFNRGEC
 | 0.204 nM | 38900 nM |  |  |  |  |  | PHS219 (antibody, human IgG1, kappa, N297A) heavy: not shown light: DIQMTQSPSSLSASVGDRVTITCRASQDVSSSVAWYQQKPGKAQKLLISWATSLYSGVPSRFSGSGSGTDFTLTISSLQPEDFATYYCQQYNNFPYTFGQGTKVEIKRTVAAPSVFIFPPSDEQLKSGTASVVCLLNNFYPREAKVQWKVDNALQSGNSQESVTEQDSKDSTYSLSSTLTLSKADYEKHKVYACEVTHQGLSSPVTKSFNRGEC

The remaining lines, values behind:

Binder | EC50 (IL10Rα-Fc fusion protein) | EC50 [1] | IC50 [2] | Kd [3] | koff [3] | kon [3] | IC50, blocking PD-1/PD-L1 signaling (PathHunter PD-1 Signaling Bioassay, U2OS PD-L1 cells + Jurkat PD-1 signaling cells) [4] | EC50 [5]
Avelumab/IL10 (antibody, human IgG1, lambda) heavy: not shown light: QSALTQPASVSGSPGQSITISCTGTSSDVGGYNYVSWYQQHPGKAPKLMIYDVSNRPSGVSNRFSGSKSGNTASLTISGLQAEDEADYYCSSYTSSSTRVFGTGTKVTVLGQPKANPTVTLFPPSSEELQANKATLVCLISDFYPGAVTVAWKADGSPVKAGVETTKPSKQSNNKYAASSYLSLTPEQWKSHRSYSCQVTHEGSTVEKTVAPTECS | 25.9 nM |  |  |  |  |  |  | 
Durvalumab/IL10 (antibody, human IgG1, kappa, N297A) heavy: not shown light: EIVLTQSPGTLSLSPGERATLSCRASQRVSSSYLAWYQQKPGQAPRLLIYDASSRATGIPDRFSGSGSGTDFTLTISRLEPEDFAWYYCQQYGSLPWTFGQGTKVEIKRTVAAPSVFIFPPSDEQLKSGTASVVCLLNNFYPREAKVQWKVDNALQSGNSQESVTEQDSKDSTYSLSSTLTLSKADYEKHKVYACEVTHQGLSSPVTKSFNRGEC | 37.5 nM | 0.121 nM | 0.188 nM |  |  |  |  | 
PHS102.YP7G (antibody, human IgG1, kappa, N297A, V domains shown, full-length human IgG1-N297A / kappa) VH: EVQLVESGGGLVQPGGSLRLSCAASGFTIDDTYIHWVRQAPGKGLEWVARIDPANGMTRYADSVKGRFMISADTSKNTAYLQMNSLRAEDTAVYYCARAFSWFPDYWGQGTLVTVSS VL: DIQMTQSPSSLSASVGDRVTITCRAGQDVYKAVAWYQQKPGKAPKLLIYWSTNLYSGVPSRFSGSGSGTDFTLTISSLQPEDFATYYCQQGSTWPLTFGQGTKVEIKR |  |  |  | 5.51 nM | 0.00136 s⁻¹ | 247000 M⁻¹ s⁻¹ |  | 
PHS102.YP11F (antibody, human IgG1, kappa, N297A, V domains shown, full-length human IgG1-N297A / kappa) VH: EVQLVESGGGLVQPGGSLRLSCAASGFTIDNTYIHWVRQAPGKGLEWVARIDPVSGRTRYADSVKGRFTISADTSKNTADLQMNSLRAEDTAVYYCARAFSWFPDYWGQGTLVTVSS VL: DIQMTQSPSSLSASVGDRVTITCRAGQDVYKAVAWYQQKPGKAPKLLIYWSTNLYSGVPSRFSGSGSGTDFTLTISSLQPEDFATYYCQQFGATPITFGQGTKVEIKR |  |  |  | 1.84 nM | 0.000615 s⁻¹ | 334000 M⁻¹ s⁻¹ |  | 
PHS102.HSYPP411C (antibody, human IgG1, kappa, N297A, V domains shown, full-length human IgG1-N297A / kappa) VH: EVQLVESGGGLVQPGGSLRLSCAASGFTIDNTYIHWVRQAPGKGLEWVARIDPANGKTTYADSVKGRFTISADTSKNTANLQMNSLRAEDTAVYYCARSFSWWADYWGQGTLVTVSS VL: DIQMTQSPSSLSASVGDRVTITCRAGQDVYKAVAWYQQKPGKAPKLLIYWSTNLYSGVPSRFSGSGSGTDFTLTISSLQPEDFATYYCQQFNLQPTTFGQGTKVEIKR |  |  |  | 2.03 nM | 0.000653 s⁻¹ | 321000 M⁻¹ s⁻¹ | 3.74 nM | 
PHS102.HSYPP31F (antibody, human IgG1, kappa, N297A, V domains shown, full-length human IgG1-N297A / kappa) VH: EVQLVESGGGLVQPGGSLRLSCAASGFTIEDSYIHWVRQAPGKGLEWVARIDPITGLTHYADSVKGRFTISADTSKNTAYLQMNSLRAEDTAVYYCARAFSWFPDYWGQGTLVTVSS VL: DIQMTQSPSSLSASVGDRVTITCRAGQDVYKAVAWYQQKPGKAPKLLIYWSTNLYSGVPSRFSGSGSGTDFTLTISSLQPEDFATYYCQQIMEPPVTFGQGTKVEIKR |  |  |  | 1.88 nM | 0.000542 s⁻¹ | 288000 M⁻¹ s⁻¹ | 3.56 nM | 
Atezolizumab (antibody, also called YW243.55.S70; MPDL3280A) heavy: not shown light: DIQMTQSPSSLSASVGDRVTITCRASQDVSTAVAWQQKPGKAPKLLIYSASFLYSGVPSRFSGSGSGTDFTLTISSLQPEDFATYYCQQYLYHPATFGQGTKVEIKRRTVAAPSVFIFPPSDEQLKSGTASVVCLLNNFYPREAKVQWKVDNALQSGNSQESVTEQDSKDSTYSLSSTLTLSKADYEKHKVYACEVTHQGLSSPVTKSFNRGEC |  |  | 0.239 nM |  |  |  |  | 0.14 nM
Atezolizumab/IL10 (antibody) heavy: not shown light: DIQMTQSPSSLSASVGDRVTITCRASQDVSTAVAWQQKPGKAPKLLIYSASFLYSGVPSRFSGSGSGTDFTLTISSLQPEDFATYYCQQYLYHPATFGQGTKVEIKRRTVAAPSVFIFPPSDEQLKSGTASVVCLLNNFYPREAKVQWKVDNALQSGNSQESVTEQDSKDSTYSLSSTLTLSKADYEKHKVYACEVTHQGLSSPVTKSFNRGEC | 87.2 nM | 0.0865 nM | 0.124 nM |  |  |  |  | 

— patent US20230078173A1 (ELIXIRON IMMUNOTHERAPEUTICS HONG KONG, published 2023)
